In this experiment the target is T1, LC-myc with the second NPxY motif mutated to APxA (UniProt Q07954 3944-4544, limits assumed).
T1 construct: domain: light chain (LC); The substitutions have no printed residue numbers; also called 2nd NPxY mutant; not shown: C-terminal myc tag
T1 sequence (looked up): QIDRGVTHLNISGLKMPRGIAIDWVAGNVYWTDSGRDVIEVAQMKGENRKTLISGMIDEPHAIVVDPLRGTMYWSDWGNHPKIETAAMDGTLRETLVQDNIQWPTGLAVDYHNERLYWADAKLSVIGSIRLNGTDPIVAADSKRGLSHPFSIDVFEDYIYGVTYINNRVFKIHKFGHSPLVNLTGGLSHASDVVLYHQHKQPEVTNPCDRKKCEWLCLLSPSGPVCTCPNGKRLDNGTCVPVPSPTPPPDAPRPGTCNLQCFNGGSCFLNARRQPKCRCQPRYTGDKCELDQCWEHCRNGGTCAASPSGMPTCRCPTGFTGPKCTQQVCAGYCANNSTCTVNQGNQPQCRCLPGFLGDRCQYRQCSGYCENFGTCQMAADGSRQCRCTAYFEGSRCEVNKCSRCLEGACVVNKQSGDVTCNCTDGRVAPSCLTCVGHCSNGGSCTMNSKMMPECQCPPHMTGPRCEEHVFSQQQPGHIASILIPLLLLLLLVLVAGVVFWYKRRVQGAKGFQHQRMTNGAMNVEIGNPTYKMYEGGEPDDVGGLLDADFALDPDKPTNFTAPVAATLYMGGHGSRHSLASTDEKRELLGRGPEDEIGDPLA
Briefly: FLIM/FRET in cells.

B1: BACE (wild type; tag of the construct not stated at that place) (enzyme, human, UniProt P56817 46-501, looked up)
chain: ETDEEPEEPGRRGSFVEMVDNLRGKSGQGYYVEMTVGSPPQTLNILVDTGSSNFAVGAAPHPFLHRYYQRQLSSTYRDLRKGVYVPYTQGKWEGELGTDLVSIPHGPNVTVRANIAAITESDKFFINGSNWEGILGLAYAEIARPDDSLEPFFDSLVKQTHVPNLFSLQLCGAGFPLNQSEVLASVGGSMIIGGIDHSLYTGSLWYTPIRREWYYEVIIVRVEINGQDLKMDCKEYNYDKSIVDSGTTNLRLPKKVFEAAVKSIKAASSTEKFPDGFWLGEQLVCWQAGTTPWNIFPVISLYLMGEVTNQSFRITILPQQYLRPVEDVATSQDDCYKFAISQSSTGTVMGAVIMEGFYVVFDRARKRIGFAVSACHVHDEFRTAAVEGPFVTLDMEDCGYNIPQTDESTLMTIAYVMAAICALFMLPLCLMVCQWRCLRCLRQQHDDFADDISLLK
notes: whole, on cells; Used for the sentences that say only BACE or WT-BACE (NPxY mutant FLIM, Fe65 and mDab1 FRET, shedding, CTF and luciferase assays); also called WT-BACE
Turning to B1, the binding result was “binds”.
